Measurements as given in patent publication US20030083261A1, “Class of 12mer peptides that inhibit the function of the mitotic check point protein Mad2” (priority 2001, published 2003).
Entries after “also recorded” stand apart in the source; their conditions may differ. No end group written: not given here.

How the values were obtained:
[1] = in words; cited from earlier work
[2] = oral tablet; cited from earlier work
[3] = in vivo; cited from earlier work
[4] = cited from earlier work
[5] = oral administration; cited from earlier work
Mad2 [6] = biological target: T1, Mad2 (Homo sapiens, UniProt Q13257); assay: Tryptophan fluorescence titration of Mad2 with peptide; format: binding; parameters: made in house; details: addition of peptide to saturation
T1 sequence (Q13257 whole entry): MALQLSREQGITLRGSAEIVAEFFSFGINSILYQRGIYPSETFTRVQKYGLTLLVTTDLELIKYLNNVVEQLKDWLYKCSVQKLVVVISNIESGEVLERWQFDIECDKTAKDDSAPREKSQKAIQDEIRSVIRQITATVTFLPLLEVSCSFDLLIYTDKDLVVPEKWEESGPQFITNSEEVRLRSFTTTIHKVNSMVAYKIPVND
Protocol: Binding affinity between Mad2 and Cdc20P1 was determined. Two tryptophan residues are located in the proximity of the C-terminal tail of Mad2 that is involved in binding to Cdc20. Thus, binding of Cdc20P1 may affect the tryptophan fluorescence of Mad2. The intensity of tryptophan fluorescence of Mad2 was indeed reduced by 70% upon the addition of Cdc20P1 to saturation. […] This is consistent with the fact that binding of Cdc20P1 to Mad2 occurs with an intermediate exchange rate on the NMR time scale. The relative low affinity of Cdc20P1 toward Mad2 may also be the cause of the slow aggregation phenomenon of the Mad2-Cdc20P1 complex. Thus, Mad2 ligands with higher affinity for Mad2 are required for structural studies.

Mad2 [7] = biological target: T1, Mad2; assay: ELISA-type assay of phage display clones on Mad2; format: binding; parameters: made in house; details: phage clone on Mad2
Source text: Phage display library with Mad2 was screened and several clones were sequenced and analyzed using ELISA-type assays.
By coincidence, the MBP1 sequence was isolated again and the MBP1 phage clone gave an ELISA reading of 0.62 (OD at 410 nm). […] The peptides with higher ELISA readings than MBP1 are synthesized. As these peptides, including MBP1, contain tryptophan in their sequences, tryptophan fluorescence assay cannot be used to measure the affinities of these peptides toward Mad2. Alternative assays are developed and used.

Mad2 [8] = biological target: T1, Mad2; assay: Aggregation of Mad2-peptide complex over time (HSQC after incubation at 30° C.); parameters: made in house; details: incubation at 30° C. / extended periods of time
Protocol: To confirm if the complex aggregated over time, an HSQC spectrum was acquired on a freshly prepared ^15N-Mad2-Cdc20P1 sample. This sample was then incubated at 30° C. (the temperature for NMR data acquisition) for 48 hours and another HSQC was acquired.

HeLa cells = assay: Mitotic arrest by GFP-Mad2 overexpression in HeLa cells; format: cell-based; details: co-transfection of plasmid encoding the peptide; cell shape, DNA-staining, FACS
Source text: Overexpression of Mad2 in HeLa cells causes a prolonged mitotic arrest because Mad2 at elevated levels inhibits APCCdc20 in these cells in the absence of spindle damage. […] The cells round up when they undergo mitosis while the interphase cells are flat. […] The cell cycle status of the transfected cells was also confirmed by DNA-staining and by FACS analysis.

Mad2 [9] = biological target: T1, Mad2; assay: 1H-15N HSQC NMR binding and competition on 15N-labeled Mad2; parameters: made in house; details: for binding to Mad2: change of the HSQC spectrum of Mad2: addition of peptide to 15N-labeled Mad2; for relative affinity toward Mad2 by competition: two peptides added to Mad2, HSQC spectrum
Protocol: To determine whether MBP1 and Cdc20 bind to the same site on Mad2. Mad2 was pre-incubated with an excess amount of Cdc20P1. MBP1 was then added to the pre-formed Mad2-Cdc20P1 complex. HSQC spectra were taken before and after the addition of MBP1. Prior to the addition of MBP1, Mad2 formed a complex with Cdc20P1 as indicated by the HSQC spectrum. After the addition of MBP1, the HSQC spectrum of the resulting sample looked identical to that of the Mad2-MBP1 complex. Therefore, MBP1 effectively displaced Cdc20P1 away from Mad2 and formed a complex with Mad2 in the presence of Cdc20P1. […] However, it is also conceivable that MBP1 affects the binding of Cdc20P1 to Mad2 in an allosteric fashion.
The relative affinity of Mad2-MBP2 was compared to Mad2-Cdc20P1 and Mad2-MBP1. […] However, when both MBP1 and MBP2 were added to Mad2, the HSQC spectrum of the resulting sample contained two sets of signals of roughly equal intensity: one set of signals belonged to Mad2-MBP1 while the other set was from Mad2-MBP2. […] Furthermore, the exchange between these two bound forms of Mad2 occurs with a rate that is slow on the NMR time scale.

Mad2 [10] = biological target: T1, Mad2; assay: In vitro APC ubiquitination assay (Mad2 inhibition of APC^Cdc20, cyclin B1 substrate); format: biochemical; details: peptide at 100 μM
Source text: To determine whether binding of MBP1 affects the association of Mad2 with the intact Cdc20, the inventors performed an in vitro APC ubiquitination assay. In this assay, a Myc-epitope tagged N-terminal fragment of human cyclin B1 was used as the substrate. Purified recombinant human E1, UbcH10 (E2), ATP, and ubiquitin were also included (FIG. 3A). In the presence of active APC (E3), ubiquitin was ligated to the lysine side chains of cyclin B1, forming cyclin-ubiquitin conjugates with isopeptide linkages. The reaction mixture was then analyzed by SDS-PAGE followed by immuno-blotting with an anti-Myc antibody. The appearance and the intensity of the higher molecular weight bands were then used as the criteria for the activity of APC.
Addition of the APC activator, Cdc20, greatly stimulated the activity of APC. […] Therefore, MBP1 can block the biochemical function of Mad2 in vitro.

[11] = biological target: T2, Mad2 protein (mitotic checkpoint protein Mad2, purified recombinant) (UniProt Q13257 1-205); assay: tryptophan fluorescence titration of Mad2 with Cdc20P1
T2 construct: also called 15N-Mad2; free Mad2
T2 sequence (Q13257 whole entry): as above

## O=NN(CCCl)C(=O)NCCCl [Carmustine, 1,3 bis (2-chloroethyl)-1-nitrosourea]
[1]
  solubility in water: poorly soluble in water

## O=C(O)CCCc1ccc(N(CCCl)CCCl)cc1 [Chlorambucil, 4-[bis(2-chlorethyl)amino] benzenebutanoic acid]
[2]
  absorption from the gastrointestinal tract: rapidly and completely absorbed from the gastrointestinal tract

## O.O=P1(N(CCCl)CCCl)NCCCO1 (stereo not shown) [Cyclophosphamide, 2H-1,3,2-Oxazaphosphorin-2-amine, N,N-bis(2-chloroethyl)tetrahydro-, 2-oxide, monohydrate]
[3]
  stability in the gastrointestinal tract: stable in the gastrointestinal tract

## O=NN(CCCl)C(=O)NC1CCCCC1 [Lomustine, 1-(2-chloro-ethyl)-3-cyclohexyl-1 nitrosourea]
[4]; 15 minutes after intravenous administration
  tissue levels versus plasma levels: comparable to plasma levels
[4]; within 24 hours, oral radioactive lomustine about 30 mg/m^2 to 100 mg/m^2
  radioactivity excreted in the form of degradation products: about half

## N[C@@H](Cc1ccc(N(CCCl)CCCl)cc1)C(=O)O [Melphalan, 4-[bis(2-chloroethyl)amino]-L-phenylalanine]
[1]
  solubility in water: insoluble in water
[5]
  fraction of patients with multiple myeloma showing a favorable response: one third to one half

## DVEEAKILRLSGKP [Cdc20P1]
Mad2 [6]
  reduction of intensity of tryptophan fluorescence of Mad2: 70%

## GWWHIPSPVLRP [clone 11]
Mad2 [7]
  ELISA reading: 1.37 OD at 410 nm

## MBP1: 12-residue Mad2-binding peptide identified by phage display, contains tryptophan; probably SWYSYPPPQRAV (SEQ ID NO:2)
Mad2 [8]
  aggregation of the Mad2-peptide complex: stable for extended periods of time and did not aggregate
HeLa cells
  effect on mitotic arrest caused by GFP-Mad2 overexpression: counteracted the action of Mad2; also recorded: did not arrest in mitosis
Mad2 [9]
  binding to Mad2: change of the HSQC spectrum of Mad2: caused dramatic chemical shift changes of the majority of signals
  relative affinity toward Mad2 by competition: affinity of MBP1 toward Mad2 is higher than that of Cdc20P1; also recorded: MBP1 and MBP2 bind to Mad2 with very similar affinities
Mad2 [10]
  effect on the ability of Mad2 to inhibit the ubiquitination activity of APC^Cdc20: blocked the ability of Mad2 to inhibit APC^Cdc20; also recorded: prevented Mad2 from inhibiting APCCdc20
Mad2 [7]
  ELISA reading: 0.62 OD at 410 nm

## MBP2: Mad2-binding peptide from phage display sharing strong sequence similarity with Cdc20P1, no tryptophans; probably DARIIKLPVPKP (SEQ ID NO:3)
Mad2 [8]
  aggregation of the Mad2-peptide complex: did not form high molecular weight aggregates
Mad2 [9]
  binding to Mad2: change of the HSQC spectrum of Mad2: induced dramatic chemical shift changes of the majority of Mad2 signals
  relative affinity toward Mad2 by competition: binds to Mad2 with a higher affinity than Cdc20P1; also recorded: MBP1 and MBP2 bind to Mad2 with very similar affinities

B1: Cdc20P1 (14-amino acid peptide corresponding to residues 124-137 of Cdc20) (peptide, UniProt Q12834 124-137, looked up)
peptide: DVEEAKILRLSGKP
notes: also called Cdc20P1 peptide; 15N-Cdc20P1
[11]
  Kd: 3.6 µM
